Changes are numbered by the printed parent chain. One block for each binder: values may come before it.
Columns and labels:
human Jagged1 [1] = biological target: T1, human Jagged1 (human, UniProt P78504 34-1218); assay: FACS, 5 µg/ml, 293T cells with human Jagged1 vs mock
T1 construct: whole, on cells
Description: (§1) The ability of the purified antibodies to bind to human Jagged1 and Dll1 was determined by FACS analysis. […] Cells were resuspended in PBS containing 2% FCS and seeded at 50000 cells/well into V-bottomed plates. Anti-DLL4 antibodies diluted in PBS containing 2% FCS were added at a final concentration of 5 or 15 μg/ml and plates were incubated for 1 h at 4° C. […] Data was analyzed by comparing the shift in geometric mean fluorescence in the mock-transfected cells to that observed in the Jagged1- or Dll1-transfected cells and is shown in Tables 16 and 17.

human Dll1 [2] = biological target: T2, human Dll1 (human, UniProt O00548 18-723); assay: FACS, 15 µg/ml, 293T cells with human Dll1 vs mock
T2 construct: whole, on cells
T2 sequence (looked up): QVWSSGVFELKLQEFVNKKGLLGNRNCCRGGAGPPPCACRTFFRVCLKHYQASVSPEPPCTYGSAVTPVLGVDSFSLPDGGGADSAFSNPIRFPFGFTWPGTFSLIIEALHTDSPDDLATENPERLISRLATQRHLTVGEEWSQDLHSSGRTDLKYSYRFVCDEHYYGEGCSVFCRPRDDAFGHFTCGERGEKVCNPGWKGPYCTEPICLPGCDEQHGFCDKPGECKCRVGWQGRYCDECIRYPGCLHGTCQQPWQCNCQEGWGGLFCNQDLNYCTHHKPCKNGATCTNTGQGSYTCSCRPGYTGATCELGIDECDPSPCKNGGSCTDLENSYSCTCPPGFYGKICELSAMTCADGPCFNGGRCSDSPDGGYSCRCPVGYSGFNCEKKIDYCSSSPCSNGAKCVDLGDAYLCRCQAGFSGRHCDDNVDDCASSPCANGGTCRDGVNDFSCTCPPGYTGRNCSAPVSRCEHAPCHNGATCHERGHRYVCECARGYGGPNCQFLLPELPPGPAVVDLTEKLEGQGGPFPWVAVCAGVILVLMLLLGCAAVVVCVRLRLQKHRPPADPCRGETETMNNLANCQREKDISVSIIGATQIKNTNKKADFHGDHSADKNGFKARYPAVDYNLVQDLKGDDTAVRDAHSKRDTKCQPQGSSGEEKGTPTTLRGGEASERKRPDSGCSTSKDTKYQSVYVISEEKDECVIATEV
Description: as §1

human Dll1 [3] = biological target: T2, human Dll1; assay: FACS, 15 µg/ml, 293T cells with human Dll1
Description: as §1

full length human DLL4 [4] = biological target: T3, full length human DLL4 (human, UniProt Q9NR61 27-685); assay: FMAT competition, supernatant vs Alexa-647 human Notch1/Fc, 293T cells with human DLL4
T3 construct: whole, on cells; also called native DLL4 expressed in HEK293 cells
T3 sequence (Q9NR61 27-685): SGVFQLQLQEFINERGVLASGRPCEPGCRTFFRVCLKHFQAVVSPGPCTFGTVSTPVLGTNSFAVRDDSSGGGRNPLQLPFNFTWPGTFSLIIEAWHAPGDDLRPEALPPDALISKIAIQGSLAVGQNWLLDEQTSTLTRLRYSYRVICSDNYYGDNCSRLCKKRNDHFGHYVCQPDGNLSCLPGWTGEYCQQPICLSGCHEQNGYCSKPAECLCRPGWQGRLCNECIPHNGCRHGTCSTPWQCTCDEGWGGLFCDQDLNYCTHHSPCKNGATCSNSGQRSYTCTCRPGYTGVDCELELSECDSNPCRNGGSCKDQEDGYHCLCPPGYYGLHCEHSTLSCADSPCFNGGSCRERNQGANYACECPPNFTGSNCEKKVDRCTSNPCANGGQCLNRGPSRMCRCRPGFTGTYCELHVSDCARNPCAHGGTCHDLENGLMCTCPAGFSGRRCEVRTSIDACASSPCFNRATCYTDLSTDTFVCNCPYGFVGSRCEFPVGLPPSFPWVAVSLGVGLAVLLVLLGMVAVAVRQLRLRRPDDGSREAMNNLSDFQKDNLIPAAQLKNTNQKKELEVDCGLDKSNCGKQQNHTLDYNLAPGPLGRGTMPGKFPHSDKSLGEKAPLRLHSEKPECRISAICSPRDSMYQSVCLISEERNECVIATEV
Description: Transfected and untransfected 239T cells were reconstituted in PBS containing 2% FCS and 5000 transfected and 17500 non-transfected cells were plated in 20 μl into wells of a 384-well tissue culture plate (Corning Costar, catalog #3712). Subsequently, 20 μl of hybridoma supernatant was added and plates were incubated at 4° C. for 1 h, at which time 20 μl of Alexa-647 labeled human Notch1/Fc was added at a final concentration of 6.7 ng/ml. After a further 3 h incubation at 4° C., the amount of bound Notch1/Fc was determined by reading the fluorescence in each well using an FMAT 8200 instrument (Applied Biosystems). Results are expressed as % inhibitions with the minimum inhibition in the assay being determined by the effects of non-DLL4 binding supernatants prepared in a similar way as described in example 2, and the maximum inhibition being defined as the signal obtained in the presence of a saturating concentration of unlabeled Notch1/Fc. N.T.=not tested

[5] = biological target: DLL4 extracellular domain (R&D systems, catalog #1506-D4/CF) (UniProt Q9NR61 27-529, limits assumed); assay: cell-based or functional assay
Sequence of DLL4 extracellular domain (R&D systems, catalog #1506-D4/CF) (Q9NR61 27-529 limits assumed): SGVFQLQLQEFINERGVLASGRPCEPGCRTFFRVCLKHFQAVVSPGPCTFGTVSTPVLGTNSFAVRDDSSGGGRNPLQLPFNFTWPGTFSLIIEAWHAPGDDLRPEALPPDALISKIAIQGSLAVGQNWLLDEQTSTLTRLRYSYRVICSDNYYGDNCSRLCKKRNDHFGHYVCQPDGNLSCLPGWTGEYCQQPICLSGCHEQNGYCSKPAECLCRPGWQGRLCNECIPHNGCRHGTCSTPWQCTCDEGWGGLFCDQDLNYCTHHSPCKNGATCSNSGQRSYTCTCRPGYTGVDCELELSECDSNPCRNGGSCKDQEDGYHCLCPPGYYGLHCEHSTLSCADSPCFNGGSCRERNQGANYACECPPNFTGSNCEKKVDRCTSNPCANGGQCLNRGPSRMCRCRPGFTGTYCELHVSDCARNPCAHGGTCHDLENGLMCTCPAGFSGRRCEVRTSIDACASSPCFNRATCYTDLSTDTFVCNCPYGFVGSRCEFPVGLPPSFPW

full length human DLL4 [6] = biological target: T3, full length human DLL4; assay: FMAT, hybridoma supernatant, 293T cells with human DLL4
Description: (§2) Cells diluted in PBS containing 2% FBS were seeded at a density of 3000 expressing and 15000 mock transfected cells per well in 384 well plates (Corning Costar, catalog #3712). Immediately after plating, 15 or 20 μl/well of hybridoma supernatants and 10 μl/well of secondary antibody (Goat anti-human IgG Fc Cy5, final concentration 750 ng/ml) were added and plates incubated for 3 h at room temperature prior to reading the fluorescence on the FMAT 8200 instrument (Applied Biosystems). The binding of human Notch1/Fc chimera (R&D systems, catalog #3647-TK), diluted 1:2 from 2.86 μg/ml was used as a positive control for DLL4 and human Notch3/Fc chimera diluted from 10 μg/ml was used a positive control for binding to Jagged1. Results for 12 hybridoma supernatants showing binding of hybridoma supernatants to human/cynomolgus monkey DLL4 and human Jagged are shown in Table 3.

human Jagged1 [7] = biological target: T1, human Jagged1; assay: FMAT, hybridoma supernatant, 293T cells with human Jagged1
Description: as §2

human Jagged1 [8] = biological target: T1, human Jagged1; assay: FACS, 5 µg/ml, 293T cells with human Jagged1
Description: as §1

full length human DLL4 [9] = biological target: T3, full length human DLL4; assay: FMAT competition, purified antibody vs Alexa-647 human Notch1/Fc, 293T cells with human DLL4
Description: To discriminate between the purified antibodies based upon their ability to prevent the interaction between full-length recombinant DLL4 and soluble Notch1/Fc, the following assays were performed. Transfected and untransfected 239T cells were reconstituted in PBS containing 2% FCS and 5000 transfected and 17500 non-transfected cells were plated in 30 μl into wells of a 384-well tissue culture plate (Corning Costar, catalog #3712). Subsequently, 30 μl of purified antibodies, serial diluted from 5 μg/ml hybridoma supernatant was added and plates were incubated at 4° C. for 1 h, at which time 20 μl of 100 ng/ml Alexa-647 labeled human Notch1/Fc was added. After a further 3 h incubation at 4° C., the amount of bound Notch1/Fc was determined by reading the fluorescence in each well using an FMAT 8200 instrument (Applied Biosystems).

T1 sequence (P78504 34-1218): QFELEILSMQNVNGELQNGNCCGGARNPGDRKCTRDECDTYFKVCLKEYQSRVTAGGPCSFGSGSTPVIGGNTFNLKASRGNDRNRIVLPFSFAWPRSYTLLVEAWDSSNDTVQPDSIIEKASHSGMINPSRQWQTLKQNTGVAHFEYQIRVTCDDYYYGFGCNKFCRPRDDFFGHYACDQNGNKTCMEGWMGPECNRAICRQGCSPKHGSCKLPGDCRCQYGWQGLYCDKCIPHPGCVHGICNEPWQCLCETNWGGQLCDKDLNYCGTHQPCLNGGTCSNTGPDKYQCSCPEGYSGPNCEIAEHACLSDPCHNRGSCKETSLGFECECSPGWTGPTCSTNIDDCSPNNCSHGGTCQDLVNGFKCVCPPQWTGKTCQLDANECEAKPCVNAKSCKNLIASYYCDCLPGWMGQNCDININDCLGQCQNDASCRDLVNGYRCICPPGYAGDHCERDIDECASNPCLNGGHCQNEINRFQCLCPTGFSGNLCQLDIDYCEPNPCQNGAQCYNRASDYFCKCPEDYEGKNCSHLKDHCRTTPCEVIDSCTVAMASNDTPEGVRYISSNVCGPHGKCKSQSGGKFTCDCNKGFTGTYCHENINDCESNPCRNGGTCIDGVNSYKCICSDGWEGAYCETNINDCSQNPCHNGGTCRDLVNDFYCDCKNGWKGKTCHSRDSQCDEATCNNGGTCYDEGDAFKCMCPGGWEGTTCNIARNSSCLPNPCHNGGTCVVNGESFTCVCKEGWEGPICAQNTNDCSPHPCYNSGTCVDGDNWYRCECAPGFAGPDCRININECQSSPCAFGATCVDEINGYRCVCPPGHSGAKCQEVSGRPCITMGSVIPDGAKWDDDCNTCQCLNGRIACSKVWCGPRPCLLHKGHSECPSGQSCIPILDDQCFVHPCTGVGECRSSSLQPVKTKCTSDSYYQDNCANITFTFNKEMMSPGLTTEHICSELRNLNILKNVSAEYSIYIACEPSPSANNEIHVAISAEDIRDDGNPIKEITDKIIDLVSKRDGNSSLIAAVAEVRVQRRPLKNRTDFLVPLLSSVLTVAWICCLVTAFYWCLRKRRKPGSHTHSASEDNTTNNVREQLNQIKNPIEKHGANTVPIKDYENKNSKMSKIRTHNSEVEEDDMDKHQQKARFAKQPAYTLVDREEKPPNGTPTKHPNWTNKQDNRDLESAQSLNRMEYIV

Jagged1/mock ratio (human Jagged1 [1]): 1.11 | Dll1/mock ratio (human Dll1 [2]): 1.12 | Dll1/293T X Geo mean (human Dll1 [3]): 47 | % inhibition n = 1 (full length human DLL4 [4]): 103% | % inhibition n = 2 (full length human DLL4 [4]): 147% | % inhibition n = 3 (full length human DLL4 [4]): 144% | Mean % inhibition (full length human DLL4 [4]): 131% | % inhibition 1 µg/ml, AVERAGE (HUVEC proliferation on coated DLL4) [5]: 56% | % inhibition 1 µg/ml, N = 1 (HUVEC proliferation on coated DLL4) [5]: 50% | % inhibition 1 µg/ml, N = 2 (HUVEC proliferation on coated DLL4) [5]: 62% | % inhibition 10 µg/ml, AVERAGE (HUVEC proliferation on coated DLL4) [5]: 74% | % inhibition 10 µg/ml, N = 1 (HUVEC proliferation on coated DLL4) [5]: 62% | % inhibition 10 µg/ml, N = 2 (HUVEC proliferation on coated DLL4) [5]: 85% | Count (full length human DLL4 [6]): 179 | FL1 (full length human DLL4 [6]): 9520 | FL1 x count (full length human DLL4 [6]): 1.76e+06 | Count (human Jagged1 [7]): 25 | FL1 (human Jagged1 [7]): 988 | FL1 x count (human Jagged1 [7]): 24700 | Jagged1/293T X Geo mean (human Jagged1 [8]): 14.4 | % inhibition at 0.020 nM (full length human DLL4 [9]): 6% | % inhibition at 0.070 nM (full length human DLL4 [9]): -18% | % inhibition at 0.21 nM (full length human DLL4 [9]): 9% | % inhibition at 0.62 nM (full length human DLL4 [9]): 15% | % inhibition at 1.9 nM (full length human DLL4 [9]): 88% | % inhibition at 5.6 nM (full length human DLL4 [9]): 119% | % inhibition at 16.7 nM (full length human DLL4 [9]): 101% | IC50 (full length human DLL4 [9]): 1.48 nM
B1: 12A1 (antibody, IgG4, V domains shown)
VH: QVQLVQSGAEVKRPGASVKVSCKASGYTFTSYGITWVRQAPGQGLEYMGWISTYNGNTDYAQKFQGRVTMTADISTSTAYMELRSLRSDDTAVYYCARERGSYFDYWGQGTLVTVSS
VL: SYELTQPPSVSVSPGQTARITCSGDTLPKKYAYWYQQKSGQAPVLVIYEDIKRPSGIPERFSGSSSGTMATLTISGAQVEDEADYYCFSTDSGGNHKFGGGTKLTVL
notes: Fully human; also used where no isotype is printed

Jagged1/mock ratio (human Jagged1 [1]): 1.08 | Dll1/mock ratio (human Dll1 [2]): 1.14 | Dll1/293T X Geo mean (human Dll1 [3]): 47 | % inhibition n = 2 (full length human DLL4 [4]): 108% | % inhibition n = 3 (full length human DLL4 [4]): 131% | Mean % inhibition (full length human DLL4 [4]): 120% | % inhibition 1 µg/ml, AVERAGE (HUVEC proliferation on coated DLL4) [5]: 30% | % inhibition 1 µg/ml, N = 1 (HUVEC proliferation on coated DLL4) [5]: 24% | % inhibition 1 µg/ml, N = 2 (HUVEC proliferation on coated DLL4) [5]: 35% | % inhibition 10 µg/ml, AVERAGE (HUVEC proliferation on coated DLL4) [5]: 52% | % inhibition 10 µg/ml, N = 1 (HUVEC proliferation on coated DLL4) [5]: 48% | % inhibition 10 µg/ml, N = 2 (HUVEC proliferation on coated DLL4) [5]: 56% | Count (full length human DLL4 [6]): 219 | FL1 (full length human DLL4 [6]): 11300 | FL1 x count (full length human DLL4 [6]): 2.47e+06 | Count (human Jagged1 [7]): 30 | FL1 (human Jagged1 [7]): 1440 | FL1 x count (human Jagged1 [7]): 43100 | Jagged1/293T X Geo mean (human Jagged1 [8]): 16.3 | % inhibition at 0.020 nM (full length human DLL4 [9]): 14% | % inhibition at 0.070 nM (full length human DLL4 [9]): 25% | % inhibition at 0.21 nM (full length human DLL4 [9]): 14% | % inhibition at 0.62 nM (full length human DLL4 [9]): 29% | % inhibition at 1.9 nM (full length human DLL4 [9]): 69% | % inhibition at 5.6 nM (full length human DLL4 [9]): 121% | % inhibition at 16.7 nM (full length human DLL4 [9]): 115% | IC50 (full length human DLL4 [9]): 1.81 nM
B2: 17F3 (antibody, IgG2, V domains shown)
VH: QVQLVQSGAEVKKPGASVKVSCKASGYTFTNYGISWVRQAPGQGLEWMGWINAYNGNTNYAQNLQGRVTMTTDTSTNTAYMELRSLRSDDTAVYYCARVAPAAFFDYWDQGTLVTVSS
VL: SYELTQPPSVSVSPGQTASITCSGDKLGDKYVCWYQQKPGQSPVLVIYQDNKRPSGIPERFSGSNSGNTATLIISGTQAMDEADYYCQAWDSSTVFGGGTKLTVL
notes: as for B1

Jagged1/mock ratio (human Jagged1 [1]): 1.01 | Dll1/mock ratio (human Dll1 [2]): 1.13 | Dll1/293T X Geo mean (human Dll1 [3]): 30.2 | % inhibition n = 2 (full length human DLL4 [4]): 93% | % inhibition n = 3 (full length human DLL4 [4]): 140% | Mean % inhibition (full length human DLL4 [4]): 117% | % inhibition 1 µg/ml, N = 1 (HUVEC proliferation on coated DLL4) [5]: 30% | % inhibition 10 µg/ml, N = 1 (HUVEC proliferation on coated DLL4) [5]: 48% | Count (full length human DLL4 [6]): 200 | FL1 (full length human DLL4 [6]): 10400 | FL1 x count (full length human DLL4 [6]): 2.08e+06 | Count (human Jagged1 [7]): 1 | FL1 (human Jagged1 [7]): 2070 | FL1 x count (human Jagged1 [7]): 2070 | Jagged1/293T X Geo mean (human Jagged1 [8]): 13.8 | % inhibition at 0.020 nM (full length human DLL4 [9]): 11% | % inhibition at 0.070 nM (full length human DLL4 [9]): 17% | % inhibition at 0.21 nM (full length human DLL4 [9]): 7% | % inhibition at 0.62 nM (full length human DLL4 [9]): -22% | % inhibition at 1.9 nM (full length human DLL4 [9]): 35% | % inhibition at 5.6 nM (full length human DLL4 [9]): 116% | % inhibition at 16.7 nM (full length human DLL4 [9]): 104% | IC50 (full length human DLL4 [9]): 1.95 nM
B3: 21F7 (antibody, IgG2, V domains shown)
VH: B2 VH with K23Q, P101A
VL: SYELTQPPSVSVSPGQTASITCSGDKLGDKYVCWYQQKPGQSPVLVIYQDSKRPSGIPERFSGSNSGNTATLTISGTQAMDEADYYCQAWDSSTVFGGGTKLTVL
notes: as for B1

Reference: patent US20100196385A1 (AstraZeneca / MedImmune, published 2010)
